Test results published in PMC5996148.

Columns and labels:
[1] = biological target: La ribonucleoprotein domain family, member 1 (human) (UniProt Q6PKG0); assay: protein microarray; details: 3'-biotin; Microarray: 20 mM Tris pH 7.5, 5 mM MgCl2, 100 mM KCl, 0.1% Tween-20, A/T-rich ON blocker mix; EMSA: 20 mM Tris-HCl pH 8, 100 mM KCl, 200 nM ON, 0-200 nM BRD3 …
[2] = biological target: T1, small trans-membrane and glycosylated protein (human) (UniProt O95332); assay: protein microarray; details: 3'-biotin; Microarray: 20 mM Tris pH 7.5, 5 mM MgCl2, 100 mM KCl, 0.1% Tween-20, A/T-rich ON blocker mix; EMSA: 20 mM Tris-HCl pH 8, 100 mM KCl, 200 nM ON, 0-200 nM BRD3 …
T1 sequence: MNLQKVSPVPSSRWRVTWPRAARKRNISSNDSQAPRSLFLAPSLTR

Sequence	binding signal [1] [Z-score]	binding signal [2] [Z-score]
GGGAGGCTGAGGCAGG [G4-1 biotinylated (PQS2)]	4.49	3.31
GGGGACAGGGGTATGGGGAGGGG [G4-3 biotinylated (CtG)]	4.71	4.59
GGTGACAGGGGTATGGGGAGGGG [G4-2 biotinylated (Ct1)]	5.37	5.81
